Laboratory results reported in US20190071490A1, “Preventing Post-Ictal Headaches” (Beth Israel Deaconess Medical Center, Inc., priority 2017, published 2019).
Where a chain is given by its changes, count along the chain named. In names and notes the source's numbering stands.

T1: human α-CGRP (Homo sapiens, UniProt P06881)
T1 construct: 1-37 (WT); purchased GenScript Corporation or Global Peptide Services
T1 sequence (P06881 83-119 limits assumed): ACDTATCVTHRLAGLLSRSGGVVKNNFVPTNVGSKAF

T2: rat α-CGRP (Rattus norvegicus, UniProt P01256)
T2 construct: rat α (1-37); purchased GenScript Corporation or Global Peptide Services
T2 sequence (P01256 83-119 limits assumed): T1 sequence (P06881 83-119 limits assumed) with A1S, D3N, N25D, K35E

B1: M46: G1 variant; L1 R28N; L2 G50A L56T; H2 E54K A57N S58E H61F; HC-FW3 L99T A100V (antibody, V domains shown)
VH: EVQLVESGGGLVQPGGSLRLSCAASGFTFSNYWISWVRQAPGKGLEWVAEIRSKSDNEATFYAEAVKGRFTISRDNAKNSLYLQMNSLRAEDTAVYYCTVYFDYGLAIQNYWGQGTLVTVSS
VL: EIVLTQSPATLSLSPGERATLSCKASKNVTTYVSWYQQKPGQAPRLLIYAASNRYTGIPARFSGSGSGTDFTLTISSLEPEDFAVYYCSQSYNYPYTFGQGTKLEIK
B2: M64: G1 variant; L1 R28N T30G; L2 G50A; H2 E54K A57N S58V; HC-FW3 L99T A100V (antibody, V domains shown)
VH: B1 VH with E58V, F61H
VL: B1 VL with T30G, T56L
B3: M50: G1 variant; L1 R28N; L2 G50A L56T; H2 E54K A57R; HC-FW3 L99T A100V (antibody, V domains shown)
VH: B1 VH with N57R, E58S, F61H
VL: B1 VL
B4: M25: G1 variant; L1 R28N; HC-FW3 L99T A100V (antibody, V domains shown)
VH: B1 VH with K54E, N57A, E58S, F61H
VL: B1 VL with A50G, T56L
B5: M52: G1 variant; L1 R28N; L2 L561; H2 E54K A57N S58A; HC-FW3 L99T A100V (antibody, V domains shown)
VH: B1 VH with E58A, F61H
VL: B1 VL with A50G, T56I
B6: M54: G1 variant; L1 R28N T30A; L2 G50A; H2 E54K A57N S58P; HC-FW3 L99T A100V (antibody, V domains shown)
VH: B1 VH with E58P, F61H
VL: B1 VL with T30A, T56L
B7: M53: G1 variant; L1 R28N; L2 L561; H2 E54K A57N S58G; HC-FW3 L99T A100V (antibody, V domains shown)
VH: B1 VH with E58G, F61H
VL: B1 VL with A50G, T56I
B8: M57: G1 variant; L1 R28N T30D; L2 L56S; H2 E54K A57N S58E; HC-FW3 L99T A100V (antibody, V domains shown)
VH: B1 VH with F61H
VL: B1 VL with T30D, A50G, T56S
B9: M55: G1 variant; L1 R28N T30A; L2 L56S; H2 E54K A57N S58E E64D; HC-FW3 L99T A100V (antibody, V domains shown)
VH: B1 VH with F61H, E64D
VL: B1 VL with T30A, A50G, T56S
B10: M63: G1 variant; L1 R28N T30G; L2 G50A; H2 E54K A57N S58T; HC-FW3 L99T A100V (antibody, V domains shown)
VH: B1 VH with E58T, F61H
VL: B1 VL with T30G, T56L
B11: M51: G1 variant; L1 R28N; L2 L561; H2 E54K A57G; HC-FW3 L99T A100V (antibody, V domains shown)
VH: B1 VH with N57G, E58S, F61H
VL: B1 VL with A50G, T56I
B12: M61: G1 variant; L1 R28N T30G; L2 A51H; H2 E54Q A57N H61F; HC-FW3 L99T A100V (antibody, V domains shown)
VH: B1 VH with K54Q, E58S
VL: B1 VL with T30G, A50G, A51H, T56L
B13: M62: G1 variant; L1 R28N T30G; L2 A51H L56T; H2 E54K A57N S58E; HC-FW3 L99T A100V (antibody, V domains shown)
VH: B1 VH with F61H
VL: B1 VL with T30G, A50G, A51H
B14: M60: G1 variant; L1 R28N T30D; L2 L56S; H2 E54K A57N S58R H61F; HC-FW3 L99T A100V (antibody, V domains shown)
VH: B1 VH with E58R
VL: B1 VL with T30D, A50G, T56S
B15: M56: G1 variant; L1 R28N T30D; L2 L56S; H2 E54K A57N H61F; HC-FW3 L99T A100V (antibody, V domains shown)
VH: B1 VH with E58S
VL: B1 VL with T30D, A50G, T56S
B16: M58: G1 variant; L1 R28N T30D; L2 L56S; H2 E54K A57N S58I H61F; HC-FW3 L99T A100V (antibody, V domains shown)
VH: B1 VH with E58I
VL: B1 VL with T30D, A50G, T56S
B17: M49: G1 variant; L1 R28N; L2 G50A L56T; H2 E54K A57N S58Y H61F; HC-FW3 L99T A100V (antibody, V domains shown)
VH: B1 VH with E58Y
VL: B1 VL
B18: M59: G1 variant; L1 R28N T30D; L2 L56S; H2 E54K A57N S58N H61F; HC-FW3 L99T A100V (antibody, V domains shown)
VH: B1 VH with E58N
VL: B1 VL with T30D, A50G, T56S
B19: M47: G1 variant; L1 R28N; L2 G50A L56T; H2 E54K A57N S58G; HC-FW3 L99T A100V (antibody, V domains shown)
VH: B1 VH with E58G, F61H
VL: B1 VL
B20: M48: G1 variant; L1 R28N; L2 G50A L56T; H2 E54K A57N S58L; HC-FW3 L99T A100V (antibody, V domains shown)
VH: B1 VH with E58L, F61H
VL: B1 VL

How the values were obtained:
human α-CGRP = biological target: T1, human α-CGRP; experiment: Biacore SPR affinity of Fab fragments to N-biotinylated human α-CGRP on SA chip; type: binding; settings: 37° C., screening mode except underlined values
Experimental: (§1) Affinity determination of the Fabs. Affinities of the anti-CGRP monoclonal antibodies were determined at either 25° C. or 37° C. using the BIACORE3000™ surface plasmon resonance (SPR) system (Biacore, INC, Piscataway N.J.) with the manufacture's own running buffer, HBS-EP (10 mM HEPES pH 7.4, 150 mM NaCl, 3 mM EDTA, 0.005% v/v polysorbate P20). Affinity was determined by capturing N-terminally biotinylated CGRP peptides (custom ordered from GenScript Corporation, New Jersey or Global Peptide Services, Colorado) via pre-immobilized streptavidin on SA chip and measuring binding kinetics of antibody Fab titrated across the CGRP surface. Biotinylated CGRP was diluted into HBS-EP and injected over the chip at a concentration of less than 0.001 mg/ml. Using variable flow time across the individual chip channels, two ranges of antigen density were achieved: <50 response units (RU) for detailed kinetic studies and about 800 RU for concentration studies and screening. […] After each binding cycle, surfaces were regenerated with 25 mM NaOH in 25% v/v ethanol, which was tolerated over hundreds of cycles. Kinetic association rate (kon) and dissociation rate (koff) were obtained simultaneously by fitting the data to a 1:1 Langmuir binding model (Karlsson et al. (1994). Methods Enzymology 6. 99-110) using the BIAevaluation program. Global equilibrium dissociation constants (KD) or “affinities” were calculated from the ratio KD=koff/kon.
(§2) Biacore assay for affinity determination. […] All Biacore assays were conducted in HBS-EP running buffer (10 mM HEPES pH 7.4, 150 mM NaCl, 3 mM EDTA, 0.005% v/v polysorbate P20). CGRP surfaces were prepared by diluting the N-biotinylated CGRP to a concentration of less than 0.001 mg/mL into HBS-EP buffer and injecting it across the SA sensor chip using variable contact times. Low capacity surfaces, corresponding to capture levels <50 response units (RU) were used for high-resolution kinetic studies, whereas high capacity surfaces (about 800 RU of captured CGRP) were used for concentration studies, screening, and solution affinity determinations. […] Samples were typically injected for 1 minute at 100 μL/min and dissociation times of at least 10 minutes were allowed. After each binding cycle, surfaces were regenerated with 25 mM NaOH in 25% v/v ethanol, which was tolerated over hundreds of cycles. An entire titration series (typically generated in duplicate) was fit globally to a 1:1 Langmuir binding model using the BIAevaluation program. This returned a unique pair of association and dissociation kinetic rate constants (respectively, kon and koff) for each binding interaction, whose ratio gave the equilibrium dissociation constant (KD=koff/kon).
(§3) High-resolution analysis of binding interactions with extremely slow off rates. […] The protocol described above was used with the following modifications. The association rate constant (kon) was determined by injecting a 2-fold titration series (in duplicate) spanning 550 nM-1 nM for 30 seconds at 100 μL/min and allowing only a 30 second dissociation phase. The dissociation rate constant (koff) was determined by injecting three concentrations (high, medium, and low) of the same titration series in duplicate for 30 seconds and allowing a 2-hour dissociation phase. The affinity (KD) of each interaction was obtained by combining the kon and koff values obtained in both types of experiments, as shown in Table 4.

rat α-CGRP = biological target: T2, rat α-CGRP; experiment: Biacore SPR affinity of Fab fragments to N-biotinylated rat α-CGRP on SA chip; type: binding; settings: 37° C., screening mode except underlined values
Experimental: as §1, §2, §3

Molecule	α-human koff (human α-CGRP) [s⁻¹]	α-rat koff (rat α-CGRP) [s⁻¹]	α-rat koff (1/s) (rat α-CGRP)
B1	0.000539	0.00294	–
B2	0.00132	0.0234	–
B3	0.000406	0.0053	–
B4	–	0.0014	–
B5	0.000281	0.00229	–
B6	0.00179	0.00216	–
B7	0.000374	0.00191	–
B8	0.000322	0.0104	–
B9	0.000478	0.00585	–
B10	0.0015	0.00265	–
B11	0.000131	0.00118	–
B12	0.000459	0.00521	–
B13	0.000557	0.00575	–
B14	0.000911	0.0272	–
B15	0.000479	0.00935	–
B16	0.00195	–	No binding
B17	0.000595	0.0148	–
B18	0.000524	0.0123	–
B19	0.000332	0.00823	–
B20	0.000842	0.0343	–
